The values that follow come from paper PMC6004577.

This experiment deals with Acanthamoeba castellanii actin (amoeba actin), filaments (Acanthamoeba castellanii).

Chain of mDelFCΔ20, mDelFC lacking the last 20 residues (Q0QWG9 805-1183, stated change not applied): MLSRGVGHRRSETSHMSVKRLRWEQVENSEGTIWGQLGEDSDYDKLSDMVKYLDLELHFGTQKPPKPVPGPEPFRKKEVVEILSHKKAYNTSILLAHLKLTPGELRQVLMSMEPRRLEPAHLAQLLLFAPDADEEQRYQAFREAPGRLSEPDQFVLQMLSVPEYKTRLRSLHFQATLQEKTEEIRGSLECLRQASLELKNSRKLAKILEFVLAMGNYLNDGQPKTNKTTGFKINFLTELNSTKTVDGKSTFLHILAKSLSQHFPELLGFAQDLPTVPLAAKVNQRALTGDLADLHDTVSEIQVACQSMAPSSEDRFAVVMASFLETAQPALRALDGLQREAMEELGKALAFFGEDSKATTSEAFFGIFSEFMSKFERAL

As for “mDelFCΔ20, mDelFC lacking the last 20 residues (from UniProt Q0QWG9-2 626-1004) (domain or fragment)”, the inhibition of barbed-end elongation in seeded elongation assays turned out to be 7 nM.
